B1: Kremen protein 1 (Homo sapiens), Q96MU8 (parent)
chain: MAPPAARLALLSAAALTLAARPAPSPGLGPECFTANGADYRGTQNWTALQGGKPCLFWNETFQHPYNTLKYPNGEGGLGEHNYCRNPDGDVSPWCYVAEHEDGVYWKYCEIPACQMPGNLGCYKDHGNPPPLTGTSKTSNKLTIQTCISFCRSQRFKFAGMESGYACFCGNNPDYWKYGEAASTECNSVCFGDHTQPCGGDGRIILFDTLVGACGGNYSAMSSVVYSPDFPDTYATGRVCYWTIRVPGASHIHFSFPLFDIRDSADMVELLDGYTHRVLARFHGRSRPPLSFNVSLDFVILYFFSDRINQAQGFAVLYQAVKEELPQERPAVNQTVAEVITEQANLSVSAARSSKVLYVITTSPSHPPQTVPGSNSWAPPMGAGSHRVEGWTVYGLATLLILTVTAIVAKILLHVTFKSHRVPASGDLRDCHQPGTSGEIWSIFYKPSTSISIFKKKLKGQSQQDDRNPLVSD
B2: Kremen protein 1 (Homo sapiens), Q96MU8 (parent)
chain: B1 chain
partner: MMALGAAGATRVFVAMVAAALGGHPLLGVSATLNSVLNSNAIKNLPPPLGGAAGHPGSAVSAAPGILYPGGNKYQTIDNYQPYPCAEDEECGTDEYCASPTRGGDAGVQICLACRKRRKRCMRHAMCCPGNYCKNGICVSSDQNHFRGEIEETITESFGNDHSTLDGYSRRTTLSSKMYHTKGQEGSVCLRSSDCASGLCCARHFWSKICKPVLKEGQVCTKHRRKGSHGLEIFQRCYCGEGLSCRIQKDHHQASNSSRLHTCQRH

Variants of: B1
Conditions: with lrp6_human LRP6, O75581
lrp6_human LRP6, O75581, sequence (O75581 whole entry): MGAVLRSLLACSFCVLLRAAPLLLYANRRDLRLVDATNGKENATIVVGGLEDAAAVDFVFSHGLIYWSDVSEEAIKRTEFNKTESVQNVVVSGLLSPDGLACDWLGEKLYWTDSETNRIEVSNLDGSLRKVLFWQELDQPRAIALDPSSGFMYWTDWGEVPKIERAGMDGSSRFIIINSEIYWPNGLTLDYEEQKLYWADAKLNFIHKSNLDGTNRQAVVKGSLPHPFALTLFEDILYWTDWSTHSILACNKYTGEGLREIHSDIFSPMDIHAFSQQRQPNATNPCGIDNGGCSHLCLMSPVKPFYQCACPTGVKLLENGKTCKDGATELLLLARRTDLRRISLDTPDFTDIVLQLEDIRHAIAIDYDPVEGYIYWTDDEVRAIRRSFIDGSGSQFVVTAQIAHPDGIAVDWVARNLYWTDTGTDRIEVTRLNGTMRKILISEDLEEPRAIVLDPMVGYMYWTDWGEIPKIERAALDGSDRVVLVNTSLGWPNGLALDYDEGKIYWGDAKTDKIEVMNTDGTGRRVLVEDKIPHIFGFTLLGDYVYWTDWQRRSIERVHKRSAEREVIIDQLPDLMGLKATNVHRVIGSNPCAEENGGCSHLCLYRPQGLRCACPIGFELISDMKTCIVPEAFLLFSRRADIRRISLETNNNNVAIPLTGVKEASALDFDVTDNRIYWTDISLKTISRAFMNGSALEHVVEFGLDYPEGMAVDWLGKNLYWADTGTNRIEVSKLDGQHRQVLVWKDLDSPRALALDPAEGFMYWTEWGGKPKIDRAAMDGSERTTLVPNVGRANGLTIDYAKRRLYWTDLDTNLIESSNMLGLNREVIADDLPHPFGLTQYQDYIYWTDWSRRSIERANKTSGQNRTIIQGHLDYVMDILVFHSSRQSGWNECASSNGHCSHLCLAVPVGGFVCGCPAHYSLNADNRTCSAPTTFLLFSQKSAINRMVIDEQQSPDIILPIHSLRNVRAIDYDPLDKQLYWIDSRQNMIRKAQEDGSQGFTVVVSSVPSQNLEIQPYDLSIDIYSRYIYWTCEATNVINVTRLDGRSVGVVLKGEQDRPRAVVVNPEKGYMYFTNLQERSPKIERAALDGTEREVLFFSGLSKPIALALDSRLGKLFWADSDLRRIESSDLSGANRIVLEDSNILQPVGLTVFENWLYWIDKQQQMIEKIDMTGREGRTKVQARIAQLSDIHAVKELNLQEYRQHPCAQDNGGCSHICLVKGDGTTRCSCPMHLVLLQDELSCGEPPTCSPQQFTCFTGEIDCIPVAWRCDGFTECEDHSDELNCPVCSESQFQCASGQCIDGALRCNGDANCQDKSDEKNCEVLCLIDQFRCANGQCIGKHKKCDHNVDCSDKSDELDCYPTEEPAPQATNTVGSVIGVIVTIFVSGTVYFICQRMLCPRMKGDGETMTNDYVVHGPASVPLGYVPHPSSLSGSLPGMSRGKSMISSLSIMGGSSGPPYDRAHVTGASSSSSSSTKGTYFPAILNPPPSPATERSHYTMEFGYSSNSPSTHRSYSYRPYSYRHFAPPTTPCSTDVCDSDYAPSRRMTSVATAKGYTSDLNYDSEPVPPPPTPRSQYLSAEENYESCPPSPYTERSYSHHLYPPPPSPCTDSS

| effect of a mutation on the interaction | Variant |
| --- | --- |
| disrupting interaction strength | MAPPAARLALLSAAALTLAARPAPSPGLGPECFTANGADYRGTQNWTALQGGKPCLFWNETFQHPYNTLKYPNGEGGLGEHNYCRNPDGDVSPWCYVAEHEDGVYWKYCEIPACQMPGNLGCYKDHGNPPPLTGTSKTSNKLTIQTCISFCRSQRFKFAGMESGYACFCGNNPDYWKYGEAASTECNSVCFGDHTQPCGGDGRIILFDTLVGACGGNYSAMSSVVYSPDFPDTYATGRVCYWTIRVPGASHIHFSFPLFDIRDSADMVELLDGYTHRVLARFHGRSRPPLSFNVSLDFVILYFFSDRINQSQGFAVLYQAVKEELPQERPAVNQTVAEVITEQANLSVSAARSSKVLYVITTSPSHPPQTVPGSNSWAPPMGAGSHRVEGWTVYGLATLLILTVTAIVAKILLHVTFKSHRVPASGDLRDCHQPGTSGEIWSIFYKPSTSISIFKKKLKGQSQQDDRNPLVSD [A311S] |

Variants of: B2
Conditions: with dkk1_human DKK1, O94907

| effect of a mutation on the interaction | Variant |
| --- | --- |
| disrupting interaction strength | MAPPAARLALLSAAALTLAARPAPSPGLGPECFTANGADYRGTQNWTALQGGKPCLFWNETFQHPYNTLKYPNGEGGLGEHNYCRNPDGNVSPWCYVAEHEDGVYWKYCEIPACQMPGNLGCYKDHGNPPPLTGTSKTSNKLTIQTCISFCRSQRFKFAGMESGYACFCGNNPDYWKYGEAASTECNSVCFGDHTQPCGGDGRIILFDTLVGACGGNYSAMSSVVYSPDFPDTYATGRVCYWTIRVPGASHIHFSFPLFDIRDSADMVELLDGYTHRVLARFHGRSRPPLSFNVSLDFVILYFFSDRINQAQGFAVLYQAVKEELPQERPAVNQTVAEVITEQANLSVSAARSSKVLYVITTSPSHPPQTVPGSNSWAPPMGAGSHRVEGWTVYGLATLLILTVTAIVAKILLHVTFKSHRVPASGDLRDCHQPGTSGEIWSIFYKPSTSISIFKKKLKGQSQQDDRNPLVSD [D90N] |
| disrupting interaction strength | MAPPAARLALLSAAALTLAARPAPSPGLGPECFTANGADYRGTQNWTALQGGKPCLFWNETFQHPYNTLKYPNGEGGLGEHNYCRNPDGDVSPWCYVAEHEDGVYWKYCEIPACQMPGNLGCYKDHGNPPPLTGTSKTSNKLTIQTCISFCRSQRFKFAGMESGYACFCGNNPDYWKYGEAASTECNSNCSGDHTQPCGGDGRIILFDTLVGACGGNYSAMSSVVYSPDFPDTYATGRVCYWTIRVPGASHIHFSFPLFDIRDSADMVELLDGYTHRVLARFHGRSRPPLSFNVSLDFVILYFFSDRINQAQGFAVLYQAVKEELPQERPAVNQTVAEVITEQANLSVSAARSSKVLYVITTSPSHPPQTVPGSNSWAPPMGAGSHRVEGWTVYGLATLLILTVTAIVAKILLHVTFKSHRVPASGDLRDCHQPGTSGEIWSIFYKPSTSISIFKKKLKGQSQQDDRNPLVSD [V189N;F191S] |
| disrupting interaction strength | MAPPAARLALLSAAALTLAARPAPSPGLGPECFTANGADYRGTQNWTALQGGKPCLFWNETFQHPYNTLKYPNGEGGLGEHNYCRNPDGDVSPWCYVAEHEDGVYWKYCEIPACQMPGNLGCYKDHGNPPPLTGTSKTSNKLTIQTCISFCRSQRFKFAGMESGYACFCGNNPDYWKYGEAASTECNSVCFGDHTQPCGGDGRIILFDTLVGACGGNYSAMSSVVYSPDFPDTYATGRVCYWTIRVPGASHIHFSFPLFDIRDSADMVELLDGYTHRVLARFHGRSRPPLSFNVSLDFVILYFFSDRINQSQGFAVLYQAVKEELPQERPAVNQTVAEVITEQANLSVSAARSSKVLYVITTSPSHPPQTVPGSNSWAPPMGAGSHRVEGWTVYGLATLLILTVTAIVAKILLHVTFKSHRVPASGDLRDCHQPGTSGEIWSIFYKPSTSISIFKKKLKGQSQQDDRNPLVSD [A311S] |

From IntAct's records for PubMed 27524201
